In the test the target is Drosophila olf186-F-RB (Drosophila) (UniProt Q9U6B8). In words: cell-based or functional assay.
UniProt Q9U6B8, sequence (Q9U6B8 whole entry): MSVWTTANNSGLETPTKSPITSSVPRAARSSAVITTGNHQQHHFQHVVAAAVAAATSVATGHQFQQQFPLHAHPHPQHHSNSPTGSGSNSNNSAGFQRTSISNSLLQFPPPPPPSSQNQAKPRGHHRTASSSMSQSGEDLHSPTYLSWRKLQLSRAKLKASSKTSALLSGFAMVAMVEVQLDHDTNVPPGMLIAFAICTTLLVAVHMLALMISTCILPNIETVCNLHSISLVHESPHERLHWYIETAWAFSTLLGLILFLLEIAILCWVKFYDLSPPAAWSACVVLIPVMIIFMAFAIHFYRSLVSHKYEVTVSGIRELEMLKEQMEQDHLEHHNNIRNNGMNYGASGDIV

For the substance “Drosophila Stim (from UniProt P83094 24-570)”, the CRAC current density (whole-cell patch clamp, cotransfected S2 cells) was determined as 8 fold.

The values above are taken from patent US20140187616A1.
